Reference: patent publication US20210380675A1 (Kyowa Kirin, published 2021)
Read-outs that look alike come from different tables or passages of the source.

Columns and labels:
[1] = target: T1, human IL-36α(R12), truncated (human, UniProt Q9UHA7 6-158); assay: SPR, Biacore, 1:1 Langmuir fit
T1 construct: Untagged after removal of the His-SUMO tag; also called hIL-36alpha
T1 chain: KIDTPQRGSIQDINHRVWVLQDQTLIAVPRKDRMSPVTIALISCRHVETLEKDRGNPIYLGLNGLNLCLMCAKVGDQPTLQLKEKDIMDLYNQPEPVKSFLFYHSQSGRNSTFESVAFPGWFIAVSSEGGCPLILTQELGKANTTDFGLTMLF
Description: (§1) The humanized antibodies obtained in Example 6 were tested for their binding to recombinant human or cynomolgus macaque IL36a and IL-36γ in Biacore assays. The association time was set to 60 seconds, and the final dissociation time was set to 600 seconds. Equilibrium dissociation constant KD (kd/ka) of exemplary antibodies was determined using a 1:1 Langmuir fit model (see Tables 17-18 below).

human IL-36γ, truncated [2] = target: T2, human IL-36γ, truncated (human, UniProt Q9NZH8 18-169); assay: SPR, Biacore, 1:1 Langmuir fit
T2 construct: Bought from R&D Systems (cat 6835-IL); also called human IL-36 gamma; hIL-36gamma
T2 sequence: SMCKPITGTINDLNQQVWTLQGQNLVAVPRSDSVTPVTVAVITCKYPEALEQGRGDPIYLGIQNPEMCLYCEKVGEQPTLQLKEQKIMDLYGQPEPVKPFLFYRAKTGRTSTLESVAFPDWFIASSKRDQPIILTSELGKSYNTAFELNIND
Description: as §1

[3] = target: T3, cynomolgus IL-36α, truncated (cynomolgus macaque (Macaca fascicularis), UniProt Q9UHA7 14-158 (human entry), limits assumed); assay: SPR, Biacore, 1:1 Langmuir fit
T3 construct: Untagged after removal of the His-SUMO tag; also called cynomolgus IL-36 alpha; cyIL-36alpha
T3 chain: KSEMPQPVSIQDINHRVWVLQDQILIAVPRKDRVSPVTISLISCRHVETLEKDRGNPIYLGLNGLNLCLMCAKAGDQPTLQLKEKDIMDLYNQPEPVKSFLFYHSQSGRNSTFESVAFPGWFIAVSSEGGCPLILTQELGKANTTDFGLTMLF
Description: as §1

[4] = target: T4, cynomolgus IL-36γ, truncated (cynomolgus macaque (Macaca fascicularis), UniProt Q9NZH8 18-167 (human entry), limits assumed); assay: SPR, Biacore, 1:1 Langmuir fit
T4 construct: Untagged after removal of the His-SUMO tag; also called cynomolgus IL-36 gamma; cyIL-36gamma
T4 chain: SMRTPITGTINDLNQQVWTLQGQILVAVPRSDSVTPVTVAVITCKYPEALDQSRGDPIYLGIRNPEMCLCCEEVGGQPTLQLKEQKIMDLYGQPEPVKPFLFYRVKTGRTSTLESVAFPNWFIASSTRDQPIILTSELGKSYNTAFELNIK
Description: as §1

[5] = target: T5, human IL-36α (R&D Systems cat#6995-IL-010/CF) (human, UniProt Q9UHA7 6-158); assay: cell-based or functional assay
T5 sequence (looked up): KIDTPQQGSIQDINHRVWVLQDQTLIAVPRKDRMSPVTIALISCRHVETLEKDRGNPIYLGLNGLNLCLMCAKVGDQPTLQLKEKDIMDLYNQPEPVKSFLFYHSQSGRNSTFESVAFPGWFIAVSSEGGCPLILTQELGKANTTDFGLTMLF

human IL-36γ, truncated [6] = target: T2, human IL-36γ, truncated; assay: cell-based or functional assay
[7] = target: T1, human IL-36α(R12), truncated; assay: SPR, Biacore, 1:1 Langmuir fit; heads of c3 and c4 printed swapped
Description: as §1

human IL-36γ, truncated [8] = target: T2, human IL-36γ, truncated; assay: as above
Description: as §1

[9] = target: T3, cynomolgus IL-36α, truncated; assay: as above
Description: as §1

[10] = target: T4, cynomolgus IL-36γ, truncated; assay: as above
Description: as §1

[11] = target: T5, human IL-36α (R&D Systems …); assay: cell-based or functional assay; remark: listed apart in the source
human IL-36γ, truncated [12] = target: T2, human IL-36γ, truncated; assay: cell-based or functional assay; remark: listed apart in the source
[13] = target: T6, IL-36 receptor (heterodimer of IL-36R and IL-1RAcP) on human cells (human, UniProt Q9HB29 20-575; Q9NPH3 21-570); assay: cell-based or functional assay
T6 sequence (looked up) 1: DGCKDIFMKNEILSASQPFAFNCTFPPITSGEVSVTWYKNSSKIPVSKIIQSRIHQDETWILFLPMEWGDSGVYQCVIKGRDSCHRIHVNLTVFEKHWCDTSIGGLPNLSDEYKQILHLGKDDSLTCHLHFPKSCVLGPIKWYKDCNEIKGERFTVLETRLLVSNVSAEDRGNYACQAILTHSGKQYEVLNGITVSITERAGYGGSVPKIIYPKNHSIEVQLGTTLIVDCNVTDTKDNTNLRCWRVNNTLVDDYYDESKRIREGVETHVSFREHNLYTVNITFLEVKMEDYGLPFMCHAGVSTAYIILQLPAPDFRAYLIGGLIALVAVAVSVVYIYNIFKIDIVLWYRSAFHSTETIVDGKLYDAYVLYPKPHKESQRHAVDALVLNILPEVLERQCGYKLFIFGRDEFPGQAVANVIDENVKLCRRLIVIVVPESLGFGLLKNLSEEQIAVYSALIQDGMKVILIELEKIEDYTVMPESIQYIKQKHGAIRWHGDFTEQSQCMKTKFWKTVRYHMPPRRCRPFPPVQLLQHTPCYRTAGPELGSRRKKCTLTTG
T6 sequence (looked up) 2: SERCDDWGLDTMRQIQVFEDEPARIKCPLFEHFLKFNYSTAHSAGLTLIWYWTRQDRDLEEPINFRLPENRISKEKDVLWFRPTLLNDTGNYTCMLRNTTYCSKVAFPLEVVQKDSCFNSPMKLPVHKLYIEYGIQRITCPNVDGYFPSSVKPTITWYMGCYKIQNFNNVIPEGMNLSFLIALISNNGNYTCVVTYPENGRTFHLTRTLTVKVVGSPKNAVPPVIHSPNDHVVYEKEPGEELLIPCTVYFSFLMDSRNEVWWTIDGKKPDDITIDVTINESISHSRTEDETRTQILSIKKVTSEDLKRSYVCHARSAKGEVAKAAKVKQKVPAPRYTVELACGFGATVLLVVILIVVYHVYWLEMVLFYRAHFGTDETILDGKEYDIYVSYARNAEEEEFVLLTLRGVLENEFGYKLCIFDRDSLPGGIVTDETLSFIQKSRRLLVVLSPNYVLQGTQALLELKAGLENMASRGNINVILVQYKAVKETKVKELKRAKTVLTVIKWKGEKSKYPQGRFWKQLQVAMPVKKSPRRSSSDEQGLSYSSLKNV

[14] = target: T6, IL-36 receptor (heterodimer of IL-36R …); assay: cell-based or functional assay; remark: listed apart in the source
[15] = target: T6, IL-36 receptor (heterodimer of IL-36R …); assay: cell-based or functional assay; remark: listed apart in the source
[16] = target: T6, IL-36 receptor (heterodimer of IL-36R …); assay: cell-based or functional assay; remark: listed apart in the source

B1: 144D464A LV9are HV10b (antibody, V domains shown)
VH: QVQLVQSGAEVKKPGASVKVSCKASGFNIKDTYIHWVRQAPGQGLEWIGRIDPAIGTTRYDPKFQGRATITTDTSTSTVYLEFSSLRSEDTAVYYCARLHYFGNNFFFDYWGQGTLVTVSS
VL: QAVVTQEPSLTVSPGGTVTLTCRSSSGAVTTSNYANWVQEKPGQLFAGLIGGTNDRAPGVPARFSGSLLGGKAALTLSGAQPEDEADYFCALWFSNHWVFGGGTKLTVL
notes: Humanized
[1]
  Kd: 2.1 nM
Human IL-36γ, truncated [2]
  Kd: 1.3 nM
[3]
  Kd: 1.19 nM
[4]
  Kd: 1.13 nM
[5]
  IC50 of IL-8 secretion (AlphaLISA), HaCaT, 10 nM human IL-36α: 4.51 nM
Human IL-36γ, truncated [6]
  IC50 of IL-8 secretion (AlphaLISA), HaCaT, 10 nM human IL-36γ: 12.5 nM
[7]
  koff: 0.000445 s⁻¹
  kon: 212000 M⁻¹ s⁻¹
Human IL-36γ, truncated [8]
  koff: 0.000436 s⁻¹
  kon: 336000 M⁻¹ s⁻¹
[9]
  koff: 0.000422 s⁻¹
  kon: 354000 M⁻¹ s⁻¹
[10]
  koff: 0.000493 s⁻¹
  kon: 434000 M⁻¹ s⁻¹

B2: 144L249B LV9 HV10c (antibody, V domains shown)
VH: QVQLVQSGAEVKKPGASVKVSCKASGFNIKDTYIYWVRQAPGQGLEWIGRIDPAIGTTRYDPKFQGKATLTADTSTNTAYLELSSLRSEDTAVYYCARYDYSGSSFYFDYWGQGTLVTVSS
VL: QAVVTQEPSLTVSPGGTVTLTCRSSTGAVTTSNYANWVQEKPGQLFTGLIGGTNDRAPGVPARFSGSLLGGKAALTLSGAQPEDEADYFCALWYSNHLVFGGGTKLTVL
notes: Humanized
[1]
  Kd: 0.992 nM
Human IL-36γ, truncated [2]
  Kd: 0.625 nM
[3]
  Kd: 0.674 nM
[4]
  Kd: 0.552 nM
[7]
  koff: 0.000843 s⁻¹
  kon: 850000 M⁻¹ s⁻¹
Human IL-36γ, truncated [8]
  koff: 0.000625 s⁻¹
  kon: 999000 M⁻¹ s⁻¹
[9]
  koff: 0.00103 s⁻¹
  kon: 1.53e+06 M⁻¹ s⁻¹
[10]
  koff: 0.000603 s⁻¹
  kon: 1.09e+06 M⁻¹ s⁻¹
[11]
  IC50 of IL-8 secretion (AlphaLISA), HaCaT, 10 nM human IL-36α: 5.13 nM
Human IL-36γ, truncated [12]
  IC50 of IL-8 secretion (AlphaLISA), HaCaT, 10 nM human IL-36γ: 11.5 nM

B3: 144L249B LV9 HV10b (antibody, V domains shown)
VH: QVQLVQSGAEVKKPGASVKVSCKASGFNIKDTYIYWVRQAPGQGLEWIGRIDPAIGTTRYDPKFQGKATLTTDTSTSTAYLELSSLRSEDTAVYYCARYDYSGSSFYFDYWGQGTLVTVSS
VL: QAVVTQEPSLTVSPGGTVTLTCRSSTGAVTTSNYANWVQEKPGQLFTGLIGGTNDRAPGVPARFSGSLLGGKAALTLSGAQPEDEADYFCALWYSNHLVFGGGTKLTVL
notes: Humanized
[1]
  Kd: 1.39 nM
Human IL-36γ, truncated [2]
  Kd: 0.942 nM
[3]
  Kd: 0.944 nM
[4]
  Kd: 1.13 nM
[7]
  koff: 0.000989 s⁻¹
  kon: 714000 M⁻¹ s⁻¹
Human IL-36γ, truncated [8]
  koff: 0.000728 s⁻¹
  kon: 772000 M⁻¹ s⁻¹
[9]
  koff: 0.00126 s⁻¹
  kon: 1.34e+06 M⁻¹ s⁻¹
[10]
  koff: 0.000969 s⁻¹
  kon: 855000 M⁻¹ s⁻¹
[11]
  IC50 of IL-8 secretion (AlphaLISA), HaCaT, 10 nM human IL-36α: 6.61 nM
Human IL-36γ, truncated [12]
  IC50 of IL-8 secretion (AlphaLISA), HaCaT, 10 nM human IL-36γ: 20.7 nM

B4: human IL-36Ra, truncated (ligand)
chain: VLSGALCFRMKDSALKVLYLHNNQLLAGGLHAGKVIKGEEISVVPNRWLDASLSPVILGVQGGSQCLSCGVGQEPTLTLEPVNIMELYLGAKESKSFTFYRRDMGLTSSFESAAYPGWFLCTVPEADQPVRLTQLPENGGWNAPITDFYFQQCD
[13]
  IC50 of IL-8 secretion, HaCaT, 10 nM cynomolgus IL-36γ, FIG. 2C: 174 nM
  IC50 of IL-8 secretion, HaCaT, 10 nM cynomolgus IL-36γ, FIG. 2D: 235 nM
  IC50 of IL-8 secretion, HaCaT, 10 nM human IL-36γ, FIG. 1D: 45.1 nM
  IC50 of IL-8 secretion, HaCaT, 10 nM human IL-36γ, FIG. 1E: 86.5 nM
  IC50 of IL-8 secretion, HaCaT, 10 nM human IL-36γ, FIG. 1F: 129 nM
[14]
  IC50 of IL-8 secretion, HaCaT, 10 nM cynomolgus IL-36α, FIG. 2A: 21.8 nM
  IC50 of IL-8 secretion, HaCaT, 10 nM cynomolgus IL-36α, FIG. 2B: 20.8 nM
  IC50 of IL-8 secretion, HaCaT, 10 nM human IL-36α, FIG. 1A: 39.9 nM
  IC50 of IL-8 secretion, HaCaT, 10 nM human IL-36α, FIG. 1B: 46.6 nM
  IC50 of IL-8 secretion, HaCaT, 10 nM human IL-36α, FIG. 1C: 90.6 nM
[15]
  IC50 of IL-8 secretion, primary human keratinocytes, 6.25 nM human IL-36α, FIG. 4A: 11.2 nM
  IC50 of IL-8 secretion, primary human keratinocytes, 8 nM human IL-36α, FIG. 4B: 34.6 nM
  IC50 of IL-8 secretion, primary human keratinocytes, 8.4 nM human IL-36γ, FIG. 4C: 109 nM
  IC50 of IL-8 secretion, primary human keratinocytes, 8.4 nM human IL-36γ, FIG. 4D: 47.9 nM
[16]
  IC50 of IL-8 secretion, primary human monocytes, 6 nM human IL-36γ, FIG. 5C: 38 nM
  IC50 of IL-8 secretion, primary human monocytes, 20 nM human IL-36α, FIG. 5A: 46.5 nM
  IC50 of IL-8 secretion, primary human monocytes, 40 nM human IL-36α, FIG. 5B: 69.1 nM
  IC50 of IL-8 secretion, primary human monocytes, 50 nM human IL-36γ, FIG. 5D: 76.3 nM
